# Target: the molecule itself
# Test: SDS-PAGE of unboiled samples; oligomeric state in SDS-PAGE, samples not boiled, without biotin, with or without 0.7 M β-mercaptoethanol
protein,measurement,value
"8-aa-loop-H127C mutein (streptavidin) (natural protein, UniProt P22629 25-183, looked up, disulfide bond between the Cys-127 residues of adjacent subunits, streptavidin; loop7-8 (residues 114-121) replaced and H127C added; SDS-PAGE was done without biotin; also called MH127C; 8-aa-loop-H127 mutein; source: B. subtilis WB800, secreted, purified from culture supernatant (biotin-agarose)) DPSKDSKAQVSAAEAGITGTWYNQLGSTFIVTAGADGALTGTYESAVGNAESRYVLTGRYDSAPATDGSGTALGWTVAWKNNYRNAHSATTWSGQYVGGAEARINTQWLLTSGDSSNGSDGSTLVGCDTFTKVKPSAASIDAAKKAGVNNGNPLDAVQQ",stoichiometry N,4
